Results reported in publication doi:10.1101/2021.03.12.434960.

The substances below were run against taxol-stabilised microtubules of porcine brain tubulin (pig (porcine brain)) (UniProt P02550) (assay: single-molecule TIRF microscopy on surface-bound microtubules).

full-length human KIF5C, C-terminal mScarlet-StrepII, sequence (O60282 whole entry): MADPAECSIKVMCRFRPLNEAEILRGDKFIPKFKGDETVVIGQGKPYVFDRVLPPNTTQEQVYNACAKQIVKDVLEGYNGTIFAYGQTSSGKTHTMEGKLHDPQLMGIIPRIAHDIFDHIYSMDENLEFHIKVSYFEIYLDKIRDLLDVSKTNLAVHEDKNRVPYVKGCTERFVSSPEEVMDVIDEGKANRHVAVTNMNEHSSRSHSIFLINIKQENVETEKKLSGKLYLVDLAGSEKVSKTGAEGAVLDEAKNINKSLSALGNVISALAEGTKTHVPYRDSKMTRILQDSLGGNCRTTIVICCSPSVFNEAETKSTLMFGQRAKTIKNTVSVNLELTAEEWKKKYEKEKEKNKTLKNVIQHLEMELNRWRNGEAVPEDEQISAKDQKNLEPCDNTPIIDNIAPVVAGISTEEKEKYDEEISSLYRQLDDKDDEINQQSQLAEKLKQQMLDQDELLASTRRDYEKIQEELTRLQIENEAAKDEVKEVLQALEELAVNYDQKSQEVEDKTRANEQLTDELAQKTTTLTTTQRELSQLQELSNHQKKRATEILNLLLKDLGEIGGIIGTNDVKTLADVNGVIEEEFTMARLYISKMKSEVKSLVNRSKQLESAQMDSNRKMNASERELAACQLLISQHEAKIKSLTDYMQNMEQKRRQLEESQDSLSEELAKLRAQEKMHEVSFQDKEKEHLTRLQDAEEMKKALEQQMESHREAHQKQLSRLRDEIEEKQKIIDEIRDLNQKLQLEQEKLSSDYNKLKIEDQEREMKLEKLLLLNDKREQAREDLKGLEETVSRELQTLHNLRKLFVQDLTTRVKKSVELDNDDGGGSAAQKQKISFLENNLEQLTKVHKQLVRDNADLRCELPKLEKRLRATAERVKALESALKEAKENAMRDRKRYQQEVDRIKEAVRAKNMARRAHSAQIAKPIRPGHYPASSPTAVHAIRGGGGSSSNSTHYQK
full-length human KIF5A, C-terminal mScarlet-StrepII, sequence (Q12840 whole entry): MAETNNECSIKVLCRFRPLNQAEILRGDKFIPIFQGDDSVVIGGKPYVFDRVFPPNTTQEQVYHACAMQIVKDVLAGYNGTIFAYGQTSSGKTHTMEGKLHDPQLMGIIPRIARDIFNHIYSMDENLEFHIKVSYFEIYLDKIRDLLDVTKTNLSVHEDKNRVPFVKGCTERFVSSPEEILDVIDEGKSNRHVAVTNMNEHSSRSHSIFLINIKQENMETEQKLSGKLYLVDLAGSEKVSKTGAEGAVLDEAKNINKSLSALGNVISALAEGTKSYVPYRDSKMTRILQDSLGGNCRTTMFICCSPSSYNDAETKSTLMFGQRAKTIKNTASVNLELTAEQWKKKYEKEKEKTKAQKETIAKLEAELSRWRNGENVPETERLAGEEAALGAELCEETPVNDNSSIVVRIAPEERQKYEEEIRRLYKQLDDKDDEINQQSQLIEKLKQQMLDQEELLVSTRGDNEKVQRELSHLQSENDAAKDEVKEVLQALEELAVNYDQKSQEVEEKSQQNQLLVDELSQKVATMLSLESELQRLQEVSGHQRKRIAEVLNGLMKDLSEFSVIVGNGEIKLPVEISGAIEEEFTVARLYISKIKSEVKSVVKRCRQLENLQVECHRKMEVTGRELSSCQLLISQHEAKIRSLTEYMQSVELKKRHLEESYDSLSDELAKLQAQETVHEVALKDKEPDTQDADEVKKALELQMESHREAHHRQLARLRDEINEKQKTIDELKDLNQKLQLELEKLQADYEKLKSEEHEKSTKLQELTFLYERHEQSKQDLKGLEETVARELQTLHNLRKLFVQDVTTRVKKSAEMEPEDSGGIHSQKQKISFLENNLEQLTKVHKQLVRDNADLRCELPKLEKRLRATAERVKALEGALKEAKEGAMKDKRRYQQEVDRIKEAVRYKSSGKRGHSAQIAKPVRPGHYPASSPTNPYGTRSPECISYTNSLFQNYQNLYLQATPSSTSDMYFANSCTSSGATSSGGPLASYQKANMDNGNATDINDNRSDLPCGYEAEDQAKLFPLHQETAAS
K420C (human KIF5C aa 1-416, C-terminal mScarlet-StrepII), sequence (O60282 1-416, stated change not applied): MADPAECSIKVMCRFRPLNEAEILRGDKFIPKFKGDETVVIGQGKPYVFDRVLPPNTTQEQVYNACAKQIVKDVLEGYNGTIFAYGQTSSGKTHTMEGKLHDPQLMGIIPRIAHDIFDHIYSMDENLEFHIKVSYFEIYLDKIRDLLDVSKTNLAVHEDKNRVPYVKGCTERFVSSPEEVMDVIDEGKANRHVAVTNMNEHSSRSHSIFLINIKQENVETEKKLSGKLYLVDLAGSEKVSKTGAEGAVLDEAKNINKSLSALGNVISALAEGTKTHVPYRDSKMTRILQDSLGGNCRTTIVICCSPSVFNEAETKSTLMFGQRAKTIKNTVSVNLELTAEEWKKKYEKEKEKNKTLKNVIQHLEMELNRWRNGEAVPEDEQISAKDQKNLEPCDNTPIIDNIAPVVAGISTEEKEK
K420A (human KIF5A aa 1-416, C-terminal mScarlet-StrepII), sequence (Q12840 1-416, stated change not applied): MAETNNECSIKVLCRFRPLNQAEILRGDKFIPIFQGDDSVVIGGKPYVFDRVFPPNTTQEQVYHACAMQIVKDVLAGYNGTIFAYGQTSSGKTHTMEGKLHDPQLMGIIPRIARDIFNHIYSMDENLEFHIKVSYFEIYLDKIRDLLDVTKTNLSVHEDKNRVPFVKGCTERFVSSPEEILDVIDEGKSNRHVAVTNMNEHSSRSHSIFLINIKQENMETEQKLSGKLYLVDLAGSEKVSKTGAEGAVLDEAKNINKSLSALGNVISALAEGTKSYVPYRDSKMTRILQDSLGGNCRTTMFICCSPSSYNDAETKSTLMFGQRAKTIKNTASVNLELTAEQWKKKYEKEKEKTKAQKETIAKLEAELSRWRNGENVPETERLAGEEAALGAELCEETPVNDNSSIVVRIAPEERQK

Row | Substance | landing rate
1 | K420A (human KIF5A aa 1-416, C-terminal mScarlet-StrepII) (from UniProt Q12840 1-416) (domain or fragment) | 162 /μm/s/μM
2 | K420B (human KIF5B aa 1-420, C-terminal mScarlet-StrepII) (from UniProt P33176 1-420) (domain or fragment) | 146 /μm/s/μM
3 | K420C (human KIF5C aa 1-416, C-terminal mScarlet-StrepII) (from UniProt O60282 1-416) (domain or fragment) | 147 /μm/s/μM
4 | KIF5A-KLC1 tetramer (from UniProt Q12840;Q07866) (complex) | 0.1 /μm/s/μM
5 | KIF5B-E178A, C-terminal mScarlet-StrepII (from UniProt P33176 1-963) (natural protein) | 8.1 /μm/s/μM
6 | KIF5B-H129A, C-terminal mScarlet-StrepII (from UniProt P33176 1-963) (natural protein) | 4.4 /μm/s/μM
7 | KIF5B-IAK/AAA, C-terminal mScarlet-StrepII (from UniProt P33176 1-963) (natural protein) | 4.1 /μm/s/μM
8 | KIF5B-KLC1 tetramer (from UniProt P33176;Q07866) (complex) | 0.06 /μm/s/μM
9 | KIF5B-Δhinge (Δ505-610), C-terminal mScarlet-StrepII (from UniProt P33176 1-963) (natural protein) | 3.6 /μm/s/μM
10 | KIF5C-KLC1 tetramer (from UniProt O60282;Q07866) (complex) | 0.06 /μm/s/μM
11 | full-length human KIF5A, C-terminal mScarlet-StrepII (from UniProt Q12840 1-1032) (natural protein) | 0.69 /μm/s/μM
12 | full-length human KIF5B, C-terminal mScarlet-StrepII (from UniProt P33176 1-963) (natural protein) | 0.08 /μm/s/μM
13 | full-length human KIF5C, C-terminal mScarlet-StrepII (from UniProt O60282 1-957) (natural protein) | 0.1 /μm/s/μM
